Laboratory results as given in PMC10258192.

Molecular target: T1, mEGFP-SRSF2, Q01130
T1 chain: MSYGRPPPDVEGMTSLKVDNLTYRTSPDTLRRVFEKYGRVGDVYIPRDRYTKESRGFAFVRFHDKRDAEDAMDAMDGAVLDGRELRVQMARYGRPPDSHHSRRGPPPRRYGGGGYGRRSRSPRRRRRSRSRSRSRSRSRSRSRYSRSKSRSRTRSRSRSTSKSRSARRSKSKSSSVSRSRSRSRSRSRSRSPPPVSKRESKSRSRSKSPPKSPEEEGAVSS
Assay: SEC-MALS; purified protein, static light scattering after the molecular sieve; before addition of PEG8000
Conditions: remark: other sources report otherwise

stoichiometry N: 5000
B1: mEGFP-SRSF2, Q01130 1-221 (natural protein)
chain: T1 chain
